Key:
[1] = biological target: T1, human p75 neurotrophin receptor, full length, expressed on HEK 293 cells (Homo sapiens, UniProt P08138 29-427); assay: cell-cell screen, flow cytometry
T1 construct: Full-length human p75 with a cytosolic fluorescent tag (GFP); also called p75NTR; NGFR
T1 sequence: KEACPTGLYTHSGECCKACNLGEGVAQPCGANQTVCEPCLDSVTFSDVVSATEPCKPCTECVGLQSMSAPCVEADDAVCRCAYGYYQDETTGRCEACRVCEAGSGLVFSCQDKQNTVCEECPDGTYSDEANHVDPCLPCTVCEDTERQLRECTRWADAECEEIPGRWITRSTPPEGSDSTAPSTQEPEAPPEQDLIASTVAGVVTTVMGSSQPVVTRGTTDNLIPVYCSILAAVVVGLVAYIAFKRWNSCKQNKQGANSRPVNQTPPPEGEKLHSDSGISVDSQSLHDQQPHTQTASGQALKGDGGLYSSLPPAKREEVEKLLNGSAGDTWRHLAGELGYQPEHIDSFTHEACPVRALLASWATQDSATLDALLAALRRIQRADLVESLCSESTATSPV
Protocol: As illustrated, cells were transfected with expression cassettes expressing labeled receptors or labeled ligands, receptor-expressing cells were mixed with ligand-expressing cells and cell-to-cell binding was monitored by detecting the labels associated with the receptor and the ligand. […] Binding was detected using an anti-mIgG2A ab and flow cytometry. The binding curves were fit and the Bmax, EC50, and hill coefficient were calculated using the equation Y=Bmax*Xh/(Kdh+Xh).

[2] = biological target: T2, human B7-1 K120D on cells (Homo sapiens, UniProt P33681 35-280); assay: cell-cell binding, flow cytometry; percent of the wild-type pair
T2 construct: mCherry-tagged point mutant; also called LYS120 ASP
T2 chain: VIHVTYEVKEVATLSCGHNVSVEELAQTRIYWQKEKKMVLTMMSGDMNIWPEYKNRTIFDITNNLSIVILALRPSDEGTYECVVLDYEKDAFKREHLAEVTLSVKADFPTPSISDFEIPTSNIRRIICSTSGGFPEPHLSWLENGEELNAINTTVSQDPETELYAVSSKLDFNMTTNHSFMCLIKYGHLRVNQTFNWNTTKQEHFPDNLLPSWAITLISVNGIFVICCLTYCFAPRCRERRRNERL

[3] = biological target: T3, human B7-1 K127D on cells (Homo sapiens, UniProt P33681 35-280); assay: as above
T3 construct: mCherry-tagged point mutant; also called LYS127 ASP
T3 chain: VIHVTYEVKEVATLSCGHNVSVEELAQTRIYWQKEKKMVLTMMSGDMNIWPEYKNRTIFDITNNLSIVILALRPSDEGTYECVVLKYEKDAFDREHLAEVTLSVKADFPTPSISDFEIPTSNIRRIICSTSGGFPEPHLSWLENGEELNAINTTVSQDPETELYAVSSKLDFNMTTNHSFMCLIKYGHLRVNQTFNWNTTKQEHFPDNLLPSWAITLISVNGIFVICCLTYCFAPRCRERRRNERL

human B7-1 R63D on cells = biological target: T4, human B7-1 R63D on cells (Homo sapiens, UniProt P33681 35-280); assay: as above
T4 construct: mCherry-tagged point mutant; also called ARG63 ASP
T4 chain: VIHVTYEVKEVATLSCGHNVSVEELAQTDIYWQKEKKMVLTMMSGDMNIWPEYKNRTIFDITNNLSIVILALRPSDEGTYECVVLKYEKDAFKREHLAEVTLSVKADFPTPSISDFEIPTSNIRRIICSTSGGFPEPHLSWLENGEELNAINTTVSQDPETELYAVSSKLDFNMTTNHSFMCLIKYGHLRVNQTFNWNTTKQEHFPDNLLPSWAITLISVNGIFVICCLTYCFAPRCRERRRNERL

human B7-1 N82E on cells = biological target: T5, human B7-1 N82E on cells (Homo sapiens, UniProt P33681 35-280); assay: as above
T5 construct: C-terminally fused to mCherry; also called ASN82 GLU
T5 chain: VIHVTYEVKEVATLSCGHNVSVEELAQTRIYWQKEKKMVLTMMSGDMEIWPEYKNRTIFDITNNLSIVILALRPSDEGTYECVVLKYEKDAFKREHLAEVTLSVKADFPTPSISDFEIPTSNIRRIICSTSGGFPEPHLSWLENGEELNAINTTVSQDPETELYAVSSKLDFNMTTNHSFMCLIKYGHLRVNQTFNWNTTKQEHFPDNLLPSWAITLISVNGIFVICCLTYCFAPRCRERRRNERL

[4] = biological target: T6, human B7-1 (CD80), full length, expressed on HEK 293 cells (Homo sapiens, UniProt P33681 35-280); assay: as above
T6 construct: also called hB7-1; B7-1-mCherry
T6 sequence: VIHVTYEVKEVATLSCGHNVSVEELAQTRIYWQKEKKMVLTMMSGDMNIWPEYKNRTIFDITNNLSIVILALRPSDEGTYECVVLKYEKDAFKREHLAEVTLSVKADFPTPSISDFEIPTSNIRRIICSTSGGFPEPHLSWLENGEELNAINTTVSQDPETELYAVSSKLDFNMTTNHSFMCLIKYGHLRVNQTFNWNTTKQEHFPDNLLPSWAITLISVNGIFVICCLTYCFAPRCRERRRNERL

[5] = biological target: T7, human B7-1 K139D on cells (Homo sapiens, UniProt P33681 35-280); assay: as above
T7 construct: mCherry-tagged point mutant; also called LYS139ASP; LYS139 ASP
T7 chain: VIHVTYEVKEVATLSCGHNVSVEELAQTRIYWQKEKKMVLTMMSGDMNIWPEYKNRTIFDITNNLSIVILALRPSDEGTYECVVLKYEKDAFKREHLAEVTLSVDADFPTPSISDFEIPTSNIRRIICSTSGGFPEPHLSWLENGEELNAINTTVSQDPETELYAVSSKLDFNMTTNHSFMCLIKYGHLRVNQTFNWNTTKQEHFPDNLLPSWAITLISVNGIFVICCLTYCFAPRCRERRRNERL

B1: B7-2 expressed on cells (ligand, human, UniProt P42081 24-329, looked up)
chain: APLKIQAYFNETADLPCQFANSQNQSLSELVVFWQDQENLVLNEVYLGKEKFDSVHSKYMGRTSFDSDSWTLRLHNLQIKDKGLYQCIIHHKKPTGMIRIHQMNSELSVLANFSQPEIVPISNITENVYINLTCSSIHGYPEPKKMSVLLRTKNSTIEYDGVMQKSQDNVTELYDVSISLSVSFPDVTSNMTIFCILETDKTRLLSSPFSIELEDPQPPPDHIPWITAVLPTVIICVMVFCLILWKWKKKKRPRNSYKCGTNTMEREESEQTKKREKIHIPERSDEAQRVFKSSKTSSCDKSDTCF
notes: whole, on cells
B1: no binding [1].

B2: human p75NTR F136H on cells (receptor)
chain: KEACPTGLYTHSGECCKACNLGEGVAQPCGANQTVCEPCLDSVTFSDVVSATEPCKPCTECVGLQSMSAPCVEADDAVCRCAYGYYQDETTGRCEACRVCEAGSGLVHSCQDKQNTVCEECPDGTYSDEANHVDPCLPCTVCEDTERQLRECTRWADAECEEIPGRWITRSTPPEGSDSTAPSTQEPEAPPEQDLIASTVAGVVTTVMGSSQPVVTRGTTDNLIPVYCSILAAVVVGLVAYIAFKRWNSCKQNKQGANSRPVNQTPPPEGEKLHSDSGISVDSQSLHDQQPHTQTASGQALKGDGGLYSSLPPAKREEVEKLLNGSAGDTWRHLAGELGYQPEHIDSFTHEACPVRALLASWATQDSATLDALLAALRRIQRADLVESLCSESTATSPV
notes: Fluorescent-tagged point mutant
B2 was tested, and the percent binding [2] was 15%, the percent binding [3] was 16% and the percent binding (human B7-1 R63D on cells) was 25%. It also gave a percent binding (human B7-1 N82E on cells) of 66%, a percent binding [4] of 90% and a percent binding [5] of 13%.

B3: human p75NTR F136K on cells (receptor)
chain: KEACPTGLYTHSGECCKACNLGEGVAQPCGANQTVCEPCLDSVTFSDVVSATEPCKPCTECVGLQSMSAPCVEADDAVCRCAYGYYQDETTGRCEACRVCEAGSGLVKSCQDKQNTVCEECPDGTYSDEANHVDPCLPCTVCEDTERQLRECTRWADAECEEIPGRWITRSTPPEGSDSTAPSTQEPEAPPEQDLIASTVAGVVTTVMGSSQPVVTRGTTDNLIPVYCSILAAVVVGLVAYIAFKRWNSCKQNKQGANSRPVNQTPPPEGEKLHSDSGISVDSQSLHDQQPHTQTASGQALKGDGGLYSSLPPAKREEVEKLLNGSAGDTWRHLAGELGYQPEHIDSFTHEACPVRALLASWATQDSATLDALLAALRRIQRADLVESLCSESTATSPV
notes: as for B2
B3 showed a percent binding [2] of 16%, a percent binding [3] of 23% and a percent binding (human B7-1 R63D on cells) of 29%. It also gave a percent binding (human B7-1 N82E on cells) of 77%, a percent binding [4] of 81% and a percent binding [5] of 18%.

B4: human p75NTR L165H on cells (receptor)
chain: KEACPTGLYTHSGECCKACNLGEGVAQPCGANQTVCEPCLDSVTFSDVVSATEPCKPCTECVGLQSMSAPCVEADDAVCRCAYGYYQDETTGRCEACRVCEAGSGLVFSCQDKQNTVCEECPDGTYSDEANHVDPCHPCTVCEDTERQLRECTRWADAECEEIPGRWITRSTPPEGSDSTAPSTQEPEAPPEQDLIASTVAGVVTTVMGSSQPVVTRGTTDNLIPVYCSILAAVVVGLVAYIAFKRWNSCKQNKQGANSRPVNQTPPPEGEKLHSDSGISVDSQSLHDQQPHTQTASGQALKGDGGLYSSLPPAKREEVEKLLNGSAGDTWRHLAGELGYQPEHIDSFTHEACPVRALLASWATQDSATLDALLAALRRIQRADLVESLCSESTATSPV
notes: Fluorescent-tagged point mutant; also called LEU165H*
For B4, the percent binding [2] was 19%, the percent binding [3] was 25% and the percent binding (human B7-1 R63D on cells) was 26%. It also gave a percent binding (human B7-1 N82E on cells) of 15%, a percent binding [4] of 64% and a percent binding [5] of 25%.

B5: human p75NTR L165K on cells (receptor)
chain: KEACPTGLYTHSGECCKACNLGEGVAQPCGANQTVCEPCLDSVTFSDVVSATEPCKPCTECVGLQSMSAPCVEADDAVCRCAYGYYQDETTGRCEACRVCEAGSGLVFSCQDKQNTVCEECPDGTYSDEANHVDPCKPCTVCEDTERQLRECTRWADAECEEIPGRWITRSTPPEGSDSTAPSTQEPEAPPEQDLIASTVAGVVTTVMGSSQPVVTRGTTDNLIPVYCSILAAVVVGLVAYIAFKRWNSCKQNKQGANSRPVNQTPPPEGEKLHSDSGISVDSQSLHDQQPHTQTASGQALKGDGGLYSSLPPAKREEVEKLLNGSAGDTWRHLAGELGYQPEHIDSFTHEACPVRALLASWATQDSATLDALLAALRRIQRADLVESLCSESTATSPV
notes: Fluorescent-tagged point mutant; also called LEU165K*
B5 showed a percent binding [2] of 20%, a percent binding [3] of 19% and a percent binding (human B7-1 R63D on cells) of 18%. It also gave a percent binding (human B7-1 N82E on cells) of 11%, a percent binding [4] of 83% and a percent binding [5] of 19%.

B6: human p75NTR P150H on cells (receptor)
chain: KEACPTGLYTHSGECCKACNLGEGVAQPCGANQTVCEPCLDSVTFSDVVSATEPCKPCTECVGLQSMSAPCVEADDAVCRCAYGYYQDETTGRCEACRVCEAGSGLVFSCQDKQNTVCEECHDGTYSDEANHVDPCLPCTVCEDTERQLRECTRWADAECEEIPGRWITRSTPPEGSDSTAPSTQEPEAPPEQDLIASTVAGVVTTVMGSSQPVVTRGTTDNLIPVYCSILAAVVVGLVAYIAFKRWNSCKQNKQGANSRPVNQTPPPEGEKLHSDSGISVDSQSLHDQQPHTQTASGQALKGDGGLYSSLPPAKREEVEKLLNGSAGDTWRHLAGELGYQPEHIDSFTHEACPVRALLASWATQDSATLDALLAALRRIQRADLVESLCSESTATSPV
notes: as for B2
With B6 the percent binding [2] was 16%, the percent binding [3] was 11% and the percent binding (human B7-1 R63D on cells) was 13%. For the same binder, the percent binding (human B7-1 N82E on cells) was 10%, the percent binding [4] was 38% and the percent binding [5] was 14%.

B7: human p75NTR P150K on cells (receptor)
chain: KEACPTGLYTHSGECCKACNLGEGVAQPCGANQTVCEPCLDSVTFSDVVSATEPCKPCTECVGLQSMSAPCVEADDAVCRCAYGYYQDETTGRCEACRVCEAGSGLVFSCQDKQNTVCEECKDGTYSDEANHVDPCLPCTVCEDTERQLRECTRWADAECEEIPGRWITRSTPPEGSDSTAPSTQEPEAPPEQDLIASTVAGVVTTVMGSSQPVVTRGTTDNLIPVYCSILAAVVVGLVAYIAFKRWNSCKQNKQGANSRPVNQTPPPEGEKLHSDSGISVDSQSLHDQQPHTQTASGQALKGDGGLYSSLPPAKREEVEKLLNGSAGDTWRHLAGELGYQPEHIDSFTHEACPVRALLASWATQDSATLDALLAALRRIQRADLVESLCSESTATSPV
notes: as for B2
Work on B7 yielded a percent binding [2] of 17%, a percent binding [3] of 15% and a percent binding (human B7-1 R63D on cells) of 14%. It also gave a percent binding (human B7-1 N82E on cells) of 13%, a percent binding [4] of 69% and a percent binding [5] of 11%.

Reference: US20240201167A1 (ALBERT EINSTEIN COLLEGE OF MEDICINE, published 2024)
